From patent US20240425589A1, “CYTOTOXICITY-INDUCING THERAPEUTIC AGENT FOR USE IN TREATMENT OF CANCER” (CHUGAI SEIYAKU KABUSHIKI KAISHA, priority 2021, published 2024)
Where a chain is given by its changes, count along the chain named.

Columns and labels:
[1] = system: hCLDN6/BaF, hCLDN3/BaF, hCLDN4/BaF, and hCLDN9/BaF; assay: FACS analysis of specificity against CLDN family; type: binding, human; settings: 15 micro g/ml, compared with 6PHU3/TR01
Procedure: Amino acid sequences are highly conserved among CLDN3, CLDN4, CLDN6 and CLDN9. Thus we examined CLDN6 binding specificity of CLDN6 binding Fv comprising 65HQ39E as VH and 54L0532Q38K as VL, by FACS analysis. hCLDN6/BaF, hCLDN3/BaF, hCLDN4/BaF, and hCLDN9/BaF were incubated with an anti-CLDN6/CD3 bispecific antibody (CS2961) comprising the CLDN6 binding Fv CLDN6AE25EK and a CD3 binding Fv (heavy chain variable region SEQ ID NO: 184, light chain variable region SEQ ID NO: 185) at 15 micro g/ml. Another anti-CLDN6/CD3 bispecific antibody (6PHU3/TR01) and an antibody without binding capability to CLDN6 (KLH/TR01) were used as a staining control. 6PHU3/TR01 and KLH/TR01 comprise the same CD3 binding Fv (heavy chain variable region SEQ ID No: 188, light chain variable region SEQ ID NO: 189). The CLDN6 binding Fv of 6PHU3/TR01 comprises a heavy chain variable region shown in SEQ ID NO: 190 and a light chain variable region shown in SEQ ID NO: 191. KLH/TR01 comprises a KLH binding Fv (heavy chain variable region SEQ ID NO: 186, light chain variable region SEQ ID NO: 187).
Binding of each antibody was detected with Alexa Fluor 488-conjugated anti human IgG (Invitrogen). Dead cells were separated by eFlour 780 (Invitrogen) staining. […]

recombinant human CD137 = molecular target: T1, recombinant human CD137 (Homo sapiens, UniProt Q07011); assay: Biacore T200 SPR affinity of Dual-Fab antibodies to human CD137; type: binding; settings: 37 degrees C, pH 7.4
T1 construct: made in house; host or cells: FreeStyle293F
Description: Human CD137 extracellular domain (ECD) (SEQ ID NO: 179) with hexahistidine (His-tag) and biotin acceptor peptide (BAP) on its C-terminus was expressed transiently using FreeStyle293F cell line (Thermo Fisher). Conditioned media expressing human CD137 ECD was applied to a HisTrap HP column (GE healthcare) and eluted with buffer containing imidazole (Nacalai). Fractions containing human CD137 ECD were collected and subsequently subjected to a Superdex 200 gel filtration column (GE healthcare) equilibrated with 1×D-PBS. Fractions containing human CD137 ECD were then pooled and stored at −80 degrees C.
(§1) Binding affinity of Dual-Fab antibodies (Dual-Ig) to human CD3 were assessed at 25 degrees C. using Biacore T200 instrument (GE Healthcare). Anti-human Fc (GE Healthcare) was immobilized onto all flow cells of a CM4 sensor chip using amine coupling kit (GE Healthcare). Antibodies were captured onto the anti-Fc sensor surfaces, then recombinant human CD3 or CD137 was injected over the flow cell. All antibodies and analytes were prepared in ACES pH 7.4 containing 20 mM ACES, 150 mM NaCl, 0.05% Tween 20, and 0.005% NaN3. Sensor surface was regenerated each cycle with 3M MgCl2. Binding affinity were determined by processing and fitting the data to 1:1 binding model using Biacore T200 Evaluation software, version 2.0 (GE Healthcare). CD137 binding affinity assay was conducted in same condition except assay temperature was set at 37 degrees C.

[2] = molecular target: T2, recombinant human CD3 (human CD3eg linker) (Homo sapiens, UniProt P07766+P09693); assay: Biacore T200 SPR affinity of Dual-Fab antibodies to human CD3; type: binding; settings: 25 degrees C, pH 7.4
T2 construct: made in house; host or cells: FreeStyle293F
Description: The gamma and epsilon subunits of the human CD3 complex (human CD3eg linker) were linked by a 29-mer linker and a Flag-tag was fused to the C-terminal end of the gamma subunit (SEQ ID NO: 169). This construct was expressed transiently using FreeStyle293F cell line (Thermo Fisher). Conditioned media expressing human CD3eg linker was concentrated using a column packed with Q HP resins (GE healthcare) and then applied to FLAG-tag affinity chromatography. Fractions containing human CD3eg linker were collected and subsequently subjected to a Superdex 200 gel filtration column (GE healthcare) equilibrated with 1×D-PBS. Fractions containing human CD3eg linker were then pooled and stored at −80 degrees C.
as §1

[3] = Single dose toxicology study; type: in vivo, cynomolgus monkey; settings: cynomolgus monkey, in vivo, iv
Procedure: Potential toxicity of PPU4135 antibody (anti-CLDN6/Dual-Fab tri-specific antibody) was evaluated in toxicity study using cynomolgus monkeys compared with CS3348 antibody (anti-CLDN6/CD3 bispecific antibody). Because both PPU4135 and CS3348 antibodies cross-reacted with their antigens of cynomolgus monkey, cynomolgus monkey was selected as the animal species for evaluations in the in vivo toxicology studies. Since toxicological findings seemed to be more sensitive in male than female animals in the toxicity study with CS3348 (FIG. 14), 2 males were used for evaluation of the PPU4135-mediated toxicity. In these studies, dose levels were set at 100 (for CS3348) or 90 (for PPU4135) micro g/kg, which were approximately 2.57-fold efficacious concentration producing 80% of the maximal response.

T1 sequence (Q07011 with tags, fused parts or gaps): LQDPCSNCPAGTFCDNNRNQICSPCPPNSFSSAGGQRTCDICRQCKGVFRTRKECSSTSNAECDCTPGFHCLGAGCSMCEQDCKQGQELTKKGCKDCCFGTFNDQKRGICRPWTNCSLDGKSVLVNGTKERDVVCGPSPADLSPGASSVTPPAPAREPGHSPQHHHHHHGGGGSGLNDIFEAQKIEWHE
T2 sequence (P07766+P09693 fused): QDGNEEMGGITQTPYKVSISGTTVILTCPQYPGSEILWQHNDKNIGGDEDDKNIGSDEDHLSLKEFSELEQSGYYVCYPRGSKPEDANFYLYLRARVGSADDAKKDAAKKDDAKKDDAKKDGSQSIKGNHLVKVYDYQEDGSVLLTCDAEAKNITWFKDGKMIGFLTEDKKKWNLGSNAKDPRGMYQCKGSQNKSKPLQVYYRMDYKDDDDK

B1: CS2961: anti-CLDN6/CD3 bispecific antibody comprising CLDN6 binding Fv CLDN6AE25EK and a CD3 binding Fv (SEQ ID NOs 184, 185) (antibody, V domains shown)
VH: QVQLVESGGGVVQPGGSLRLSCAASGFTFSNAWMHWVRKAPGKGLEWVAQIKDKSQNYATYVAESVKGRFTISRADSKNSIYLQMNSLKTEDTAVYYCRYVHYAAGYGVDIWGQGTTVTVSS
VL: DIVMTQSPLSLPVTPGEPASISCRSSQPLVHSNRNTYLHWYQEKPGQAPRLLIYKVSNRFSGVPDRFSGSGSGTDFTLKISRVEAEDVGVYYCGQGTQVPYTFGQGTKLEIK
modifications: CLDN6 binding Fv CLDN6AE25EK lacks SEQ ID
- specificity towards CLDN6 among CLDN3, CLDN4, CLDN6, CLDN9 [1]: better specificity towards CLDN6

B2: H183L072: parental Dual-Fab (CD3/CD137), VH SEQ ID NO 90, VL SEQ ID NO 142 (antibody, V domains shown)
VH: QVQLVESGGGLVQPGRSLRLSCAASGFTFSNAWMHWVRQAPGKGLEWVAQIKDKGNAYAAYYAPSVKGRFTISRDDSKNSIYLQMNSLKTEDTAVYYCHYVHYASASTVLPAFGVDAWGQGTTVTVSS
VL: B1 VL with R24Q, S25A, P28E, S32M, E43Q, S61P, G94A, Q98S, Y101F
- CD137 Koff (recombinant human CD137): 0.0196 s⁻¹
- CD137 Kon (recombinant human CD137): 3470 M⁻¹ s⁻¹
- Kd (recombinant human CD137): 5.66 µM
- CD3 Koff [2]: 0.012 s⁻¹
- CD3 Kon [2]: 35400 M⁻¹ s⁻¹

B3: H2591L0581: affinity matured Dual-Fab variant, VH SEQ ID NO 101, VL SEQ ID NO 143 (antibody, V domains shown)
VH: B2 VH with T28K, A32V, M34F, K54Y, G55Y, A60G, A63H, S105A, V109L, F113E
VL: DIVMTQSPLSLPVTPGEPASISCQPSQEVVHMNRNTYLHWYQQKPGQAPRLLIYKVSNRFPGVPDRFSGSGSGTDFTLKISRVEAEDVGVYYCAQGTSHPFTFGQGTKLEIK
- CD137 Koff (recombinant human CD137): 0.000742 s⁻¹
- CD137 Kon (recombinant human CD137): 20400 M⁻¹ s⁻¹
- CD3 Koff [2]: 0.0535 s⁻¹
- CD3 Kon [2]: 102000 M⁻¹ s⁻¹

B4: H1550L0918: affinity matured Dual-Fab variant, VH SEQ ID NO 92, VL SEQ ID NO 144 (antibody, V domains shown)
VH: B2 VH with T28K, A32V, G55Y, V101I, V109L
VL: B3 VL with R34N, N35V, T36V
- CD137 Koff (recombinant human CD137): 0.00579 s⁻¹
- CD137 Kon (recombinant human CD137): 10900 M⁻¹ s⁻¹
- CD3 Koff [2]: 0.00316 s⁻¹
- CD3 Kon [2]: 72000 M⁻¹ s⁻¹

B5: H2594L0581: affinity matured Dual-Fab variant, VH SEQ ID NO 102, VL SEQ ID NO 143 (antibody, V domains shown)
VH: QVQLVESGGGLVQPGRSLRLSCAASGFKFSNVWFHWVRQAPGKGLEWVAQIKDYYNAYAGYYHPSVKGRFTISRDDSKNSIYLQMNSLKTEDTAVYYCHYVHYAAASQLLPAEGVDAWGQGTTVTVSS
VL: B3 VL
- CD137 Koff (recombinant human CD137): 0.00163 s⁻¹
- CD137 Kon (recombinant human CD137): 20900 M⁻¹ s⁻¹
- CD3 Koff [2]: 0.0584 s⁻¹
- CD3 Kon [2]: 98300 M⁻¹ s⁻¹

B6: CS3348: anti-CLDN6/CD3 bispecific antibody, chains SEQ ID NOs 193, 195, 194, 192; used as control (protein)
chain 1: QVQLVESGGGVVQPGGSLRLSCAASGFTFSSYTMSWVREAPGQGLEWMGTISSGGGRTYYPDSVKGRFTISRDNSKNTLYLQMNSLRDEDTAVYYCARGDYRYDGFAYWGEGTLVTVSSASTKGPSVFPLAPSSKSTSGGTAALGCLVEDYFPEPVTVSWNSGALTSGVHTFPAVLESSGLYSLSSVVTVPSSSLGTQTYICNVNHKPSNTKVDERVEPKSCDKTHTCPPCPAPEAAGGPSVFLFPPKPKDTLMISRTPEVTCVVVDVSHEDPEVKFNWYVDGVEVHNAKTKPREEQYASTYRVVSVLTVLHQDWLNGKEYKCKVSNKALPAPIEKTISKAKGQPREPQVYTLPPSREEMTKNQVSLTCLVKGFYPSDIAVEWESNGQPENNYKTTPPVLDSDGSFFLYSKLTVDKSRWQQGNVFSCSVMHEALHNHYTQESLSLSP
chain 2: DIQMTQSPSSLSASVGDRVTITCRASYNIDSYLAWYQKKPGKAPELLIYYSTLLVDGVPDRFSGSRSGTDFTLTISSLQPEDFATYYCQHYYSIPYTFGQGTKVEIERTVAAPSVFIFPPSDKQLKSGTAKVVCLLNNFYPREAKVQWKVDNALQSGNSKESVTEQDSKDSTYSLSSTLTLSKADYEKHKVYACEVTHQGLSSPVTKSFNRGEC
chain 3: QVQLVESGGGVVQPGGSLRLSCAASGFTFSNAWMHWVRKAPGKGLEWVAQIKDKSQNYATYVAESVKGRFTISRADSKNSIYLQMNSLKTEDTAVYYCRYVHYAAGYGVDIWGQGTTVTVSSASTKGPSVFPLAPSSKSTSGGTAALGCLVKDYFPEPVTVSWNSGALTSGVHTFPAVLKSSGLYSLSSVVTVPSSSLGTQTYICNVNHKPSNTKVDKRVEPKSCDKTHTCPPCPAPEAAGGPSVFLFPPKPKDTLMISRTPEVTCVVVDVSHEDPEVKFNWYVDGVEVHNAKTKPREEQYASTYRVVSVLTVLHQDWLNGKEYKCKVSNKALPAPIEKTISKAKGQPREPQVYTLPPSRKEMTKNQVSLTCLVKGFYPSDIAVEWESNGQPENNYKTTPPVLDSDGSFFLYSKLTVDKSRWQQGNVFSCSVMHEALHNHYTQKSLSLSP
chain 4: DIVMTQSPLSLPVTPGEPASISCRSSQPLVHSNRNTYLHWYQEKPGQAPRLLIYKVSNRFSGVPDRFSGSGSGTDFTLKISRVEAEDVGVYYCGQGTQVPYTFGQGTKLEIKRTVAAPSVFIFPPSDEQLKSGTAEVVCLLNNFYPREAKVQWKVDNALQSGNSEESVTEQDSKDSTYSLSSTLELSKADYEKHKVYACEVTHQGLSSPVTKSFNRGEC
- AST, ALT, GLDH, ALP, TBIL, GGT, TBA and CRP [3]: Increased
